{"source": "the nanobody polyreactivity screen of Harvey et al. (2022)"}
{"assay": "yeast display, Sf9 membrane polyspecificity reagent, FACS + sequencing; frameworks hold sequencing errors", "summary_of_the_method": "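Sorting gates, low and high (top ~1%), were placed on anti-HA fluorescence to track expression and on streptavidin fluorescence to track reagent binding. A clone's polyreactivity label is taken from the gate it came out of. The reagent was 10% biotinylated, detergent-solubilized Sf9 membrane, applied for 1 hour at 4 °C to galactose-induced yeast display cells.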"}
{"sequence": "QVQLVESCGGLVQAGGSLRISCAASGIIFHLYAMGWYRQAPGKQRELVAAISWNGSSTYYADSVKGRFTISRDYAKNTVYLQRNSLKPEDTAVYYCAASYGYFEDYGYWGHGTQVTVSS", "polyreactivity (PSR sort gate)": "low polyreactivity"}
{"sequence": "QVQLVESCGGLVQAGGSLRLICAASGRNFGHNAMGWYRQAPGKEREFVAAITYSGVRTFFADSVKGRFTISRDNAKNTVYLQMNCLKPEDTAVYYCATDWRRYYDYWGQGTQVTVSS", "polyreactivity (PSR sort gate)": "low polyreactivity"}
{"sequence": "QVQLVESCGGLVQAGGSLRLSCAASGFIFRIYAMGWYRQAPGKERELVAAITWSGGRTFYADSVKGRFTISRDNAKNTVYLQMNSLKPEDTAVFYCAARGRSSGFGYWGQGTQVTVSS", "polyreactivity (PSR sort gate)": "high polyreactivity"}
{"sequence": "QVQLVESCGGLVQAGGSLRLSCAASGFIFRSYAMGWYRKAHGKERELVAAISRSGGSTYYADSVKGRFTISRDNAKNTVYLQMNSLKPEDTAVYYCATDGGRSTARGFGHWGQGTQVTVSS", "polyreactivity (PSR sort gate)": "high polyreactivity"}
{"sequence": "QVQLVESCGGLVQAGGSLRLSCAASGFIIGYYAMGWYRQAPGKERELVAAISSTGGSTYYADSVKGRFTISRDNAKNNVYLQMNSLKPEDTAVYYCAKRFAYYRYHPGYDYWGQGTQVTVSS", "polyreactivity (PSR sort gate)": "high polyreactivity"}
{"sequence": "QVQLVESCGGLVQAGGSLRLSCAASGFTFWRYAMGWYRQAPGKERELVAAISRTGGRTYYADSVKGRFTISRDNAKNTVYLQMNSLKPEDTAVYYCAAVKYETYRYNYDYWGQGTQVTVSS", "polyreactivity (PSR sort gate)": "high polyreactivity"}
{"sequence": "QVQLVESCGGLVQAGGSLRLSCAASGGTIVFYAMGWYRQAPGKERELVAAISSSGGSTYYADSVKGRFTISRDNAKNTVYLQMNSLKPEDTAVYYCNTPSYSGSSPYDHWGQGTQVTVSS", "polyreactivity (PSR sort gate)": "high polyreactivity"}
{"sequence": "QVQLVESCGGLVQAGGSLRLSCAASGIIFGVYALGWYRQAPGKERELVAAIDGNGSSTSYADSVKGRFSISRDNAKNTVYLQINSLKPEDTAVYYCAAGYWYYLYYCYDFDYWGQGTQVTVSS", "polyreactivity (PSR sort gate)": "low polyreactivity"}
{"sequence": "QVQLVESCGGLVQAGGSLRLSCAASGITIDYYAMGWYRQAPGKERELVAAISSVGNTNYADSVKGRFTISRDNAKNTVYLQMNSLKPEDTAVYYCAARAYGQRLYRVWSGYGYWGQGTQVTVSS", "polyreactivity (PSR sort gate)": "high polyreactivity"}
{"sequence": "QVQLVESCGGLVQAGGSLRLSCAASGRIFRDYAMGWYRQAPGKERELVATITRSGGRTYYADSVKGRFTISRDNAKNTVFLQMNSLKPEDTSVYYCAATYWTYPYHYQYKYDYWGQGTQVTVSS", "polyreactivity (PSR sort gate)": "high polyreactivity"}
{"sequence": "QVQLVESCGGLVQAGGSLRLSCAASGRNFYFNAMGWYRKAPGKERELVARISTGGITNYADSVKGRFTISRDNAKITVYLQMNSLKPEDTAVYYCAADYRRTWRYNYCGQGTQVTVSS", "polyreactivity (PSR sort gate)": "high polyreactivity"}
{"sequence": "QVQLVESCGGLVQAGGSLRLSCAASGSIFPFNAMGWYRQAPGKQRELVAAITRSGGSTYYADSVKGRITISRYIAKNSVYLQMNSLKPQDTAVYYCATDPEWPLPAYYYWGQGTQVTVSS", "polyreactivity (PSR sort gate)": "low polyreactivity"}
{"sequence": "QVQLVESCGGLVQAGGSLRLSCAASGSIFQSYAMGWYRQAPGKERELVAAITERGGSTYYADSVKGRFTISRDNAKNTVYLQMNSLKPEDTAVYYCAADIYYWWGLSDLYTPTEGDYWGQGTQVTVSS", "polyreactivity (PSR sort gate)": "low polyreactivity"}
{"sequence": "QVQLVESCGGLVQAGGSLRLSCAASGSIFRSFAMGWYREAPWKERELVAAISSGGRTKYADSVKGRFTISRDNAKNTVYLQMNSLKPEDTAVYYCAARVNVKYYGFYYWGQGTQVTVSS", "polyreactivity (PSR sort gate)": "high polyreactivity"}
{"sequence": "QVQLVESCGGLVQAGGSLRLSCAASGSIFYFNAMGWYREAPGKERELVAAINISGSSTSYADSVKGRFTISRDNAKNTVYLQMNSLKPEDTAVYYCAAEDEPRILIVRVWDYYWGQGTQVTVSS", "polyreactivity (PSR sort gate)": "low polyreactivity"}
{"sequence": "QVQLVESCGGLVQAGGSLRLSCAASGSTFTPNAMGWNRQAPGKERELVAAIRGLNGRTYYADSVKGRFTISRDNAKNTVYLQMNSLKPEDTAVYYCAAGGYSYYFAWHDYWGQGTQVTVSS", "polyreactivity (PSR sort gate)": "low polyreactivity"}
{"sequence": "QVQLVESCGGLVQAGGSLRLSCAASGSTLYYYAMGWYRQAPGKERELVASISWSGGRTYYADSVKGRFTISRDNAKYTVYLQMNSLKPEDTAVYYCNAVPYRGYDYWGQGTQVTVSS", "polyreactivity (PSR sort gate)": "low polyreactivity"}
{"sequence": "QVQLVESCGGLVQAGGSLRLSCAASVSTFLFYAMGWDRQAPRKERELVAAITSGDSTNYADSVKGRFTISRDNAKNTVYLQMNSLKPEDTAVYYCAASRFGAYYWGQGTQVTVSS", "polyreactivity (PSR sort gate)": "high polyreactivity"}
{"sequence": "QVQLVESCGGLVQAGGSLRLSCADSGRTIYVNAMGCYRQAPGKERELVARITSGGSTYYADSVKGRFTISRDNAKNTVYLQMNSLTPEDTAVLYCAKKYIGYQDWIHSTRRYDYWGQGTQVTVSS", "polyreactivity (PSR sort gate)": "low polyreactivity"}
{"sequence": "QVQLVESCGGLVQAGGSLRLSCADSGYTFTTYVMGWYRQAPGKERELVAAISRRGTSTRYADSVKGRFTISRDNAKNTVYFQMNSLKPEDTAVYYCAARSSVPNRFTRDGYWGQGTQVTVSS", "polyreactivity (PSR sort gate)": "high polyreactivity"}
{"sequence": "QVQLVESCGGLVQAGGSLRLSCDASGITFNYNAMGWYRQAPGKERELVARITWSGTRTYYADSVKGRFTISRDNAKNTVYLQMNSLKPEDTAVYYCNAGPYARYYWGQGTQVTVSS", "polyreactivity (PSR sort gate)": "high polyreactivity"}
{"sequence": "QVQLVESCGGLVQPGGSLRLSCAASGSILKSYAMGWYRKAPGKERELVAAITYRDGSTYYADSVKGRFTISRDNSKNTVYLQMNSLKPEDTAVYYCAAEPSWWNVFYPGYNYWGQGTQVTVSS", "polyreactivity (PSR sort gate)": "high polyreactivity"}
{"sequence": "QVQLVESCGGLVQPGGSLRLSCAASGSTFVNYAMGWYRQAPGKERELVAAITRGVRTYYADSVKGRFTISRDNAKNTVYLQMNSLKAEDTAVYYCNRAIGPYSYPDNYWGQGTQVTVSS", "polyreactivity (PSR sort gate)": "high polyreactivity"}
{"sequence": "QVQLVESCVGLVQAGGSLRLSCAASGRIFSRYAMGWYRQAPGKERELVADITWSGGRPYYADSVKGRFTISRDNAKNTVYLQMNSLKPEDTAVYDCAATGGFSWSRDYWGLGTQVTVSS", "polyreactivity (PSR sort gate)": "low polyreactivity"}
{"sequence": "QVQLVESDGGLVQAGGSLRLSCAASGSTFNVYAMGWNRQAPGKERELVAAITSGGSTYYADSVKGRFTISRDNANNTVYLQMISQKPEDTAVYYCADDVSLSVFKLDYWGQGTQLTVSS", "polyreactivity (PSR sort gate)": "low polyreactivity"}
{"sequence": "QVQLVESDGGLVQAGGSLRLSCAASGSTFTWNAMGWYRQAPGKERELVAAISGDGGSTYYADSVKGRFTISRDNAKNTVYLQMNSLKPEDTAVYYCAASSAHIYSYRYNYWGQGTQVTVSS", "polyreactivity (PSR sort gate)": "low polyreactivity"}
{"sequence": "QVQLVESGAGIVQAGGSHRLSCAASGFIFFGYAAMEWYRQAPGKERELVAAISWSGGSTYYADSVKGRFTISRDHAKYTVYLQMNSLKPEDTAVYYCNAVYLKLYPWLDYWGQVTQVTVSS", "polyreactivity (PSR sort gate)": "low polyreactivity"}
{"sequence": "QVQLVESGAGIVQAGGSLRLSCAASGLTFKVYAMGWYRQAPGKERELVAAISWSGGSTYYADSVKGRFTISRDNAKNTGYLQRNSLKPEDTAVYYCAVEPSYYVVFFQYDYWGQGTQVTVSS", "polyreactivity (PSR sort gate)": "low polyreactivity"}
{"sequence": "QVQLVESGAGIVQAGGSLRLSCAASGSIFRVYAMGWYRQAPWKERELVAAISRTGGSTYYADSVKGRFTISRDNAKNTVYLPMNSLQPEDTAVDYCAARQRYVGYYYWGQGTQVTVSS", "polyreactivity (PSR sort gate)": "high polyreactivity"}
{"sequence": "QVQLVESGAGIVQAGGSLRLSCAASGSIFYYNAMGVYRQAPGKERELVAAITSADSTNYADSVKGRFTISRDNAKNTVYLQMNSLKPEDTAVYFCAADFLAALTYYRTYDYWGQGTQVTVSS", "polyreactivity (PSR sort gate)": "low polyreactivity"}
{"sequence": "QVQLVESGAGIVQAGGSLRLTCAASGSTFVIYDMGWSRQAPGKERELVAAISYSGGSTYYADSVKGRFTISRDNAKNTVYLQMNSLKPEDTAVYYCAAEVPYYYPGFYSYYDDSDYWGQGTQVTVSS", "polyreactivity (PSR sort gate)": "low polyreactivity"}
{"sequence": "QVQLVESGAGLFQAGGRLRISCAPSGFIFVFNAMGWYRQAPGKERELVAAINRGDITNYADSVKGRFTISRDNAKNTVYLQMHSLSPVDTAVYFCAADGEDSLWTGYDYDYWGQGTQVTVST", "polyreactivity (PSR sort gate)": "low polyreactivity"}
{"sequence": "QVQLVESGAGLVHAGGSLRLCCAASGRIFNGYSMGWYRQAPGKERELVAGISYSGGSTYYADSVKGRFTISRDNAKNTVYLQMNSQKPEETAVYYCAKRPYYLGNRYRFDYWGQGTQVSVSS", "polyreactivity (PSR sort gate)": "high polyreactivity"}
{"sequence": "QVQLVESGAGLVHAGGSLRLSCAAYGRTFLAYAKGWYRQAHGKERELVAAISKSGGRTYYADSVKGRFTISRDYAKHTVYLQMNSLKPEDTAVYYCAADKQAYVTDDYWGQGTQVTVSS", "polyreactivity (PSR sort gate)": "high polyreactivity"}
{"sequence": "QVQLVESGAGLVHAGGSLRLSCASSGSIFNVYAMGWYRQAPGKERELVAAIRSSGGSTYYADSVKGRFTISRDKAKNTVNLQMNSLKPEDTAVYYCAAVTRAIRTWRMYYWGQGTQVTVSS", "polyreactivity (PSR sort gate)": "high polyreactivity"}
{"sequence": "QVQLVESGAGLVQAGGRLRISCAASGSTFDGNTMGWYRQAPGKERELVAAISGSGGSTYYADSVKGRFTISRDNAKNTVYLQMNSLKPEDTAVYYCAADFRVGRYDYWGQGTQVTVSS", "polyreactivity (PSR sort gate)": "high polyreactivity"}
{"sequence": "QVQLVESGAGLVQAGGSLGLSCAASGSNFIYNAMGLYRQAPGKERELVAAITDRSTKYADSVKGRFTISRDNAKYSGYVQMNSLKTEDTAVYYSNAYVWRWRYDSWGQVTQVTVSS", "polyreactivity (PSR sort gate)": "low polyreactivity"}
{"sequence": "QVQLVESGAGLVQAGGSLRFSCAASGFIFVDNTMGWSSQAPGKEMELVAAISYSAGSTYYADSVKGRFTISRDNAMNTVYLQMNCLKPEDTAVYDCAAQHSWVTSYLYSYDYWGQGTQVTVSS", "polyreactivity (PSR sort gate)": "low polyreactivity"}
{"sequence": "QVQLVESGAGLVQAGGSLRISCAASGSTFDGNDIGWYRQAPGKERELVAAITIGGGSTYYADSVKGRFTISRDNAKNTVYLQMNSLKPEDTAVYYCAKDDHTGVHTYPGDYWGQGTQVTVSS", "polyreactivity (PSR sort gate)": "low polyreactivity"}
{"sequence": "QVQLVESGAGLVQAGGSLRLCCAASGRTYRLYAMGWYRQAPGKERELVAAITRGGRTNYADSVKGRFTISRDNAINTVYLQMYSLKPEDIAVYYCAARYVERHTDYYYWGQGTQVTVSS", "polyreactivity (PSR sort gate)": "low polyreactivity"}
{"sequence": "QVQLVESGAGLVQAGGSLRLCCAASGSTFTKNAMGLYRQAPGKERELVAAISWRDGSTYYADSVKGRFTISRDNAKNTVYLQMNSLKPEDTAVYYCNAVRRSFGKYPGLLDYDYWGQGTQVTVSS", "polyreactivity (PSR sort gate)": "high polyreactivity"}
{"sequence": "QVQLVESGAGLVQAGGSLRLICAASGFIFADYAMGWYRQAPGKERELVAAITSSGSRTYYADSVKGRFTISRDNAKNTVYLQMNSLKPEDTAVYYCAVRGVYYYHFAFDYWGQGTQVTVSS", "polyreactivity (PSR sort gate)": "high polyreactivity"}
{"sequence": "QVQLVESGAGLVQAGGSLRLSCAASGFIFFYYAMGWYRQAPGKERELVAAISASGGSTYYADSVKGRFTISRDNAKNTVYLQLNSLKPEDTAVYYCAARYRKAESARWEYDYWGQGTQVTVSS", "polyreactivity (PSR sort gate)": "high polyreactivity"}
